Columns and labels:
[1] = target: native GA733-2 antigen (human) (UniProt P16422); test: ELISA, antigen coated at 5 µg/ml, antibody at 10 µg/ml
[2] = target: secreted recombinant GA733-2E antigen (human) (UniProt P16422); test: as above
[3] = target: bovine serum albumin (bovine) (UniProt P02769); test: ELISA, BSA coated at 5 µg/ml, antibody at 10 µg/ml
Chain of UniProt P02769 (P02769 25-607 limits assumed): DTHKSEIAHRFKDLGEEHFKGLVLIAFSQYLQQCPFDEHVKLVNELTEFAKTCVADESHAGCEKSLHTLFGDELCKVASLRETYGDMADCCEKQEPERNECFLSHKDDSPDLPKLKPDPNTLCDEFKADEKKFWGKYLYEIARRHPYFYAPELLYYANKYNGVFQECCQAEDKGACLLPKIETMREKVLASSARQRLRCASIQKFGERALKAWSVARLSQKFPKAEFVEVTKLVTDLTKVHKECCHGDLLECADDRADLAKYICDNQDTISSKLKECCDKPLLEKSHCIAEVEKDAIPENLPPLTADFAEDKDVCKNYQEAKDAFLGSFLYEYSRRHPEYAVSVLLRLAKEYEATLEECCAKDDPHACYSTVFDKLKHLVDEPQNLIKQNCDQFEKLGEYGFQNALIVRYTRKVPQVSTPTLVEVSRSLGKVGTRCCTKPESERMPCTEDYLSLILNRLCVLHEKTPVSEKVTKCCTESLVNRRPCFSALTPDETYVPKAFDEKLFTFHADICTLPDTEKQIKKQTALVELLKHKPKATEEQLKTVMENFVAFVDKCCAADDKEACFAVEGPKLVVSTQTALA

Row | Substance | Maximal optical density (at 405 nm) [1] [OD 405 nm] | Maximal optical density (at 405 nm) [2] [OD 405 nm] | Maximal optical density (at 405 nm) [3] [OD 405 nm]
1 | Normal mouse IgG (antibody) | 0 | 0 | 0
2 | murine mAb GA733 (antibody) | 0.86 | 1.3 | 0.02

From US6645498
